B1: HJ-3 (bispecific antibody)
chain 1: not shown
chain 2: DIQMTQSPSSVSASVGDRVTITCRASQDIANYLSWYQQKPGKSPKLLIYGTSNLEVGVPSRFSGSRSGTDFTLTISSLQPEDFATYYCLQDKEFPRTFGGGTKVEIKGGGGSSGAPRFLTRPLAFVVSVGKDATLSSQIVGNPTPQVSWEKDKQPVTAGARFRLAQDGDLYRLKILDLQLSDSGQYVSRARNAIGEAFACLGLQVDAEA
chain 3: EVQLVQSGAEVKKPGSSVKVSCKASGYTFSNYLIEWVRQAPGQGLEWIGVIDPGVGDTNYNENFKGRATLTADKSTSTAYIELSSLRSEDTAVYYCAREDNTGTAFDYWGQGTTVTVSSASTKGPSVFPLAPSSKSTSGGTAALGCLVKDYFPEPVTVSWNSGALTSGVHTFPAVLQSSGLYSLSSVVTVPSSSLGTQTYICNVNHKPSNTKVDKKVEPKSCDKTHTCPPCPAPEAAGGPSVFLFPPKPKDTLMISRTPEVTCVVVDVSHEDPEVKFNWYVDGVEVHNAKTKPREEQYNSTYRVVSVLTVLHQDWLNGKEYKCKVSNKALPAPIEKTISKAKGQPREPQVCTLPPSREEMTKNQVSLSCAVKGFYPSDIAVEWESNGQPENNYKTTPPVLDSDGSFFLVSKLTVDKSRWQQGNVFSCSVMHEALHNHYTQKSLSLSPGKDYKDDDDK
chain 4: SIVMTQTPLSLSVTPGQPASISCKASQSVSSDVTWYLQKPGQSPQLLIYYVSEHYTGVPDRFSGSGYGTDFTLKISRVEAEDVGVYYCQQHHRFPLTFGQGTKLEIKRTVAAPSVFIFPPSDEQLKSGTASVVCLLNNFYPREAKVQWKVDNALQSGNSQESVTEQDSKDSTYSLSSTLTLSKADYEKHKVYACEVTHQGLSSPVTKSFNRGEC
B2: HJ-6 (bispecific antibody)
chain 1: not shown
chain 2: B1 chain 2 with R121C, L123K, F125S, T144F, A160V, I194H
chain 3: EVQLVQSGAEVKKPGSSVKVSCKASGYTFSNYLIEWVRQAPGQGLEWIGVIDPGVGDTNYNENFKGRATLTADKSTSTAYIELSSLRSEDTAVYYCAREDNTGTAFDYWGQGTTVTVSSASTKGPSVFPLAPSSKSTSGGTAALGCLVKDYFPEPVTVSWNSGALTSGVHTFPAVLQSSGLYSLSSVVTVPSSSLGTQTYICNVNHKPSNTKVDKKVEPKSCDKTHTCPPCPAPEAAGGPSVFLFPPKPKDTLMISRTPEVTCVVVDVSHEDPEVKFNWYVDGVEVHNAKTKPREEQYNSTYRVVSVLTVLHQDWLNGKEYKCKVSNKALPAPIEKTISKAKGQPREPQVCTLPPSREEMTKNQVSLSCAVKGFYPSDIAVEWESNGQPENNYKTTPPVLDSDGSFFLVSKLTVDKSRWQQGNVFSCSVMHEALHNHYTQKSLSLSPGK
chain 4: B1 chain 4
B3: HJ-7 (bispecific antibody)
chain 1: not shown
chain 2: B1 chain 2 with L123K, F125S, S137C, T144F, A160V, S188C, I194H
chain 3: B2 chain 3
chain 4: B1 chain 4
B4: HJ-5 (bispecific antibody)
chain 1: not shown
chain 2: B1 chain 2 with L123K, F125S, T144F, A160V, I194H
chain 3: B2 chain 3
chain 4: B1 chain 4
B5: HJ-10 (bispecific antibody)
chain 1: not shown
chain 2: DIQMTQSPSSVSASVGDRVTITCRASQDIANYLSWYQQKPGKSPKLLIYGTSNLEVGVPSRFSGSRSGTDFTLTISSLQPEDFATYYCLQDKEFPRTFGGGTKVEIKRTVASSGAPRFLTRPKASVVSVGKDATLSCQIVGNPFPQVSWEKDKQPVTAGVRFRLAQDGDLYRLKILDLQLSDSGQYVCRARNAHGEAFACLGLQVDAEA
chain 3: B2 chain 3
chain 4: B1 chain 4
B6: HJ-11 (bispecific antibody)
chain 1: not shown
chain 2: B5 chain 2 with A115C
chain 3: B2 chain 3
chain 4: B1 chain 4
B7: HJ-9 (bispecific antibody)
chain 1: not shown
chain 2: B5 chain 2 with R121C, C137S, C188S
chain 3: B2 chain 3
chain 4: B1 chain 4
B8: HJ-8 (bispecific antibody)
chain 1: not shown
chain 2: B5 chain 2 with C137S, C188S
chain 3: B2 chain 3
chain 4: B1 chain 4
B9: F2-3 (bispecific antibody)
heavy 1: not shown
light 1: DIQMTQSPSSVSASVGDRVTITCKASQNVGSNVAWYQQKPGKAPKALIYSASYRYSGVPSRFSGSGSGTDFTLTISSLQPEDFATYYCHQYNSYPPTFGQGTKLEIKRTVAAPSVFIFPPSDEQLKSGTASVVCLLNNFYPREAKVQWKVDNALQSGNSQESVTEQDSKDSTYSLSSTLTLSKADYEKHKVYACEVTHQGLSSPVTKSFNRGEC
heavy 2: not shown
light 2: not shown
B10: F4-7 (bispecific antibody)
heavy 1: not shown
light 1: not shown
heavy 2: EVQLVQSGAEVKKPGASVKVSCKASGYSFTGYTMNWVRQAPGKRPEWMGLINPYTGGTRNNQKFKDRVTLTVDKSASTAYMELSSLRSEDTAVYYCTRWGLRLAMDYWGQGTTVTVSSASTKGPSVFPLAPSSKSTSGGTAALGCLVKDYFPEPVTVSWNSGALTSGVHTFPAVLQSSGLYSLSSVVTVPSSSLGTQTYICNVNHKPSNTKVDKKVEPKSCDKTHTCPPCPAPEAAGGPSVFLFPPKPKDTLMISRTPEVTCVVVDVSHEDPEVKFNWYVDGVEVHNAKTKPREEQYNSTYRVVSVLTVLHQDWLNGKEYKCKVSNKALPAPIEKTISKAKGQPREPQVCTLPPSRDELTKNQVSLSCAVKGFYPSDIAVEWESNGQPENNYKTTPPVLDSDGSFFLVSKLTVDKSRWQQGNVFSCSVMHEALHNHYTQKSLSLSPGK
light 2: B9 light 1
B11: F2-2 (bispecific antibody)
heavy 1: not shown
light 1: DVVLTQSPLSLPVTLGQPASISCKSSQSLLHSSGKTYLNWLLQRPGQSPRRLIYLVSKLDSGVPDRFSGSGSGTDFTLKISRVEAEDVGVYYCAQGTHFPRTFGGGTKVEIKRTVAAPSVFIFPPSDEQLKSGTASVVCLLNNFYPREAKVQWKVDNALQSGNSQESVTEQDSKDSTYSLSSTLTLSKADYEKHKVYACEVTHQGLSSPVTKSFNRGEC
heavy 2: not shown
light 2: not shown
B12: PL-13 (bispecific antibody)
chain 1: not shown
chain 2: DIVLTQSPASLAVSPGQRATITCRASESVSIHGTHLMHWYQQKPGQPPKLLIYAASKLESGVPARFSGSGSGTDFTLTINPVEAEDTANYYCQQSFEDPLTFGQGTKLEIKRTVASGIPPKIECLPIDISIDEGKVLTVASCFTGEPTPEVTWSTGGRKIHSQEQGRFHIENTDDSTTLTIKDVQKQDGGLYTLTLRNEFGSDSATVNIHIRSI
chain 3: not shown
chain 4: not shown
B13: PL-19 (bispecific antibody)
chain 1: not shown
chain 2: B12 chain 2
chain 3: not shown
chain 4: not shown
B14: PL-18 (bispecific antibody)
chain 1: not shown
chain 2: B12 chain 2 with V136C, C142A
chain 3: not shown
chain 4: not shown
B15: PL-17 (bispecific antibody)
chain 1: not shown
chain 2: B12 chain 2 with C142A
chain 3: not shown
chain 4: not shown
B16: PL-14 (bispecific antibody)
chain 1: not shown
chain 2: B12 chain 2 with C142A
chain 3: not shown
chain 4: not shown
B17: PL-15 (bispecific antibody)
chain 1: not shown
chain 2: B12 chain 2 with V136C, C142A
chain 3: not shown
chain 4: not shown

We go through 17 molecules from patent US20250215083A1 (JIANGSU HENGRUI PHARMACEUTICALS, published 2025).

Where a chain is given by its changes, count along the chain named.

For one test, the target named is hIL5 (human, UniProt P05113 20-134). Nature of the test: ELISA per WO2021139758 Test Example 4.
For the molecule B1, the EC50 stood at 17.4 nM.
On the same count and under the same terms, the same measure for B2: 37 nM.
Regarding B3, the response was half-maximal at 17.7 nM (EC50).
Same read-out and setting: the same measure for B4: 16 nM; for B5: 20.8 nM.
On the same count and under the same terms, the result for B6 reads 9.46 nM; that for B7, 10.9 nM.
On the same count and under the same terms, the result for B8 reads 18.7 nM.

The target in a further test is hTSLP (human, UniProt Q969D9 29-159). Kind of test: ELISA per WO2021139758 Test Example 4.
As for B1, the EC50 worked out at 3.23 nM. This counts as single-digit nanomolar.
Same read-out and setting: the result for B2 reads 2.88 nM.
In turn, B3 returned an EC50 of 2.18 nM. This EC50 and that of the molecule before are within 1.5-fold of each other.
On the same count and under the same terms, the same measure for B4: 2.64 nM; for B5: 3.17 nM.
Take B6: the EC50 worked out at 3 nM.
Consider B7, for which the concentration giving a half-maximal response (EC50) amounted to 3.18 nM.
The same measure, in the same setting: the result for B8 reads 3.33 nM.

A further test deals with human GPRC5D (human, UniProt Q9NZD1 1-345). Nature of the test: cell-based or functional assay.
human GPRC5D, sequence (Q9NZD1 whole entry): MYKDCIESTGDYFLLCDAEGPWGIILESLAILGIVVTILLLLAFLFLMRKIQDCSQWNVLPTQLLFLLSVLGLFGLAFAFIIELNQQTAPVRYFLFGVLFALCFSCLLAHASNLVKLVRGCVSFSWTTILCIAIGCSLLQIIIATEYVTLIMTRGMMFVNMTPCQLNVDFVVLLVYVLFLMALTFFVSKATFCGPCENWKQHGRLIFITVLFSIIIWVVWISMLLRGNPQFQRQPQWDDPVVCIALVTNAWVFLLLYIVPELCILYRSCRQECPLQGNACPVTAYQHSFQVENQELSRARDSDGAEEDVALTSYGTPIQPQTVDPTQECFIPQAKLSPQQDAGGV
Turning to B9, the “EC50 ratio (relative to JNJ-64407564), cytotoxic activity against NCI-H929” value amounted to 0.08 and the “Lysis rate %, cytotoxic activity against NCI-H929” value (shortened to “Lysis rate %, cytotoxic activity”) is 61.5%.
As to B10, the “EC50 ratio (relative to JNJ-64407564), cytotoxic activity against NCI-H929” value was determined as 0.16 and the “Lysis rate %, cytotoxic activity” value amounted to 68.3%.
Consider B11, for which the “EC50 ratio (relative to JNJ-64407564), cytotoxic activity against NCI-H929” value was 0.26 and the “Lysis rate %, cytotoxic activity” value was determined as 64.3%.

The target of a further test is T1, hCTLA4 (human, UniProt P16410 36-161).
T1 construct: purchased from Sino biology
T1 sequence (P16410 36-161 limits assumed): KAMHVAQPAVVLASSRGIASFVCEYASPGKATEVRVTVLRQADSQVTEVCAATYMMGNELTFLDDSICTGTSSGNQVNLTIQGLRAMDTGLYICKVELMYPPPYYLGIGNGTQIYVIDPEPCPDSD
Kind of test: ELISA per WO2021139758 Test Example 4.
The molecule B12 had an EC50 of 4.4 nM.
Still for that read-out and setting: the result for B13 reads 6.5 nM; that for B14, 6.7 nM; that for B15, 6.2 nM.
The same measure, in the same setting: the result for B16 reads 6 nM; that for B17, 3.2 nM.

The target of the next test is T2, hPDL1 (human, UniProt Q9NZQ7 19-238).
T2 construct: purchased from Sino biology
T2 sequence (Q9NZQ7 19-238 limits assumed): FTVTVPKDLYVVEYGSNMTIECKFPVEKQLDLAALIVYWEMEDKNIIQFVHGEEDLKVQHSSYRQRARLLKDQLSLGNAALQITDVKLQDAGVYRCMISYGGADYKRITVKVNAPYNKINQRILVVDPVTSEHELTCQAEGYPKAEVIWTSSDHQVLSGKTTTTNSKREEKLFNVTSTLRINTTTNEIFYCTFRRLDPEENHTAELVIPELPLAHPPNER
Kind of test: ELISA per WO2021139758 Test Example 4.
The molecule B12 displayed an EC50 of 0.5 nM.
On to B13, for which the EC50 came to 1.6 nM.
Still for that read-out and setting: the result for B14 reads 1.6 nM; that for B15, 1.4 nM.
Same read-out and setting: the same measure for B16: 1.3 nM; for B17: 1.4 nM.
